Earlier results in article PMC8268101.

Molecular target: C1q (Homo sapiens) (UniProt P02745)
Experiment: SPR

Sequence of UniProt P02745 (P02745 23-245, chain 1 of 3): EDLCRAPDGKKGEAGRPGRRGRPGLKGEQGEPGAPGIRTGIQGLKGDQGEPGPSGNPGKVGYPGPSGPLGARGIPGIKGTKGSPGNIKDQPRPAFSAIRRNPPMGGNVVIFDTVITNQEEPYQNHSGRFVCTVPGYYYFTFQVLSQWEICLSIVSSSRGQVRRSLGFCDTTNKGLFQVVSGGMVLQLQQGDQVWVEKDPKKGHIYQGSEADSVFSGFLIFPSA
Sequence of UniProt P02745 (P02746 28-253, chain 2 of 3, further chain): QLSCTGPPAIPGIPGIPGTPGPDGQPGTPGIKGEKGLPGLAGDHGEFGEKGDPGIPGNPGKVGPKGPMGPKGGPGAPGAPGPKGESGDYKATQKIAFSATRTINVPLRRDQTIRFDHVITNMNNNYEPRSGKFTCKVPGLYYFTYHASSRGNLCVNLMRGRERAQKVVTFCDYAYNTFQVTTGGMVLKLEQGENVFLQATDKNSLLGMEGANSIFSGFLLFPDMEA
Sequence of UniProt P02745 (P02747 29-245, chain 3 of 3, further chain): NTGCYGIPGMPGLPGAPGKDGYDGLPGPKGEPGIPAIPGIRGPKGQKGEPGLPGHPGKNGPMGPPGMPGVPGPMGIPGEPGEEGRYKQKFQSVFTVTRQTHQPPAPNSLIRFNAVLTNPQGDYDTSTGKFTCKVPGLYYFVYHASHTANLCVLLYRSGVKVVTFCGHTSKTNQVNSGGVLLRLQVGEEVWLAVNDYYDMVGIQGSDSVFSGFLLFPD

Kd: 5.6 µM
Substance: RAGE (from UniProt Q15109)
